Here are results for four molecules from doi:10.1101/2023.08.03.551877 (bioRxiv, 2023).

Sequences and labels used below:
B1: Ume1 (natural protein)
chain: MSTLDIAEDNKIKNEEFKIWKKSIPSLYQHISSLKPIFGSGVDESPSTLRSIVFTNDSSCNKSKGVLSVPLLYSQGSEIFEVDCIVPLGLHYKKPESISEPLVQPDYTMESQKVEQTVLIPKWEFKGETIAKMIYVDNSEINVKVIALSTNGSLAWFREGVKSPVYTMMEPSTSLSSASSGNQNKPCVDFAISNDSKTLTVTKEKHLDNENATIKLIDNSGKIGEVLRTIPVPGIKNIQEIKFLNNQIFATCSDDGIIRFWGNEIGKKPLWILNDSLDGKTTCFAASPFVDTLFMTGTSGGALKVWDIRAVIALGDADAELNINQGHNKVNELFKVHHFYSEQVSKIEFSSISPMEVVTIGGLGNVYHWNFEPVFAIYNEIHEDFQGIISDELEAESMAFYHTEGCRREIGENNKVNTVAYHKYIEDLVATVDSDGLLTVYKPFTGKVLDGSREVGAAKS
B2: Rco1 (natural protein)
chain: MDTSKKDTTRSPSHSNSSSPSSSSLSSSSSKEKKRPKRLSSQNVNYDLKRRKIITSEGIERSFKNEHSNLAVEDNIPEEEPKELLEKDSKGNIIKLNEPSTISEDSKVSVTGLPLNKGPSEKIKRESLWNYRKNLGGQSNNSEMTLVPSKRFTQVPKNFQDLNRNDLKTFLTENMTEESNIRSTIGWNGDIINRTRDREPESDRDNKKLSNIRTKIILSTNATYDSKSKLFGQNSIKSTSNASEKIFRDKNNSTIDFENEDFCSACNQSGSFLCCDTCPKSFHFLCLDPPIDPNNLPKGDWHCNECKFKIFINNSMATLKKIESNFIKQNNNVKIFAKLLFNIDSHNPKQFQLPNYIKETFPAVKTGSRGQYSDENDKIPLTDRQLFNTSYGQSITKLDSYNPDTHIDSNSGKFLICYKCNQTRLGSWSHPENSRLIMTCDYCQTPWHLDCVPRASFKNLGSKWKCPLHSPTKVYKKIHHCQEDNSVNYKVWKKQRLINKKNQLYYEPLQKIGYQNNGNIQIIPTTSHTDYDFNQDFKITQIDENSIKYDFFDKIYKSKMVQKRKLFQFQESLIDKLVSNGSQNGNSEDNMVKDIASLIYFQVSNNDKSSNNKSASKSNNLRKLWDLKELTNVVVPNELDSIQFNDFSSDEIKHLLYLKKIIESKPKEELLKFLNIENPENQSE
B3: Rpd3 (enzyme)
chain: MVYEATPFDPITVKPSDKRRVAYFYDADVGNYAYGAGHPMKPHRIRMAHSLIMNYGLYKKMEIYRAKPATKQEMCQFHTDEYIDFLSRVTPDNLEMFKRESVKFNVGDDCPVFDGLYEYCSISGGGSMEGAARLNRGKCDVAVNYAGGLHHAKKSEASGFCYLNDIVLGIIELLRYHPRVLYIDIDVHHGDGVEEAFYTTDRVMTCSFHKYGEFFPGTGELRDIGVGAGKNYAVNVPLRDGIDDATYRSVFEPVIKKIMEWYQPSAVVLQCGGDSLSGDRLGCFNLSMEGHANCVNYVKSFGIPMMVVGGGGYTMRNVARTWCFETGLLNNVVLDKDLPYNEYYEYYGPDYKLSVRPSNMFNVNTPEYLDKVMTNIFANLENTKYAPSVQLNHTPRDAEDLGDVEEDSAEAKDTKGGSQYARDLHVEHDNEFY
B4: Eaf3 (natural protein)
chain: MVDLEQEFALGGRCLAFHGPLMYEAKILKIWDPSSKMYTSIPNDKPGGSSQATKEIKPQKLGEDESIPEEIINGKCFFIHYQGWKSSWDEWVGYDRIRAYNEENIAMKKRLANEAKEAKKSLLEQQKKKKLSTSLGGPSNGGKRKGDSRSNASISKSTSQSFLTSSVSGRKSGRSSANSLHPGSSLRSSSDQNGNDDRRRSSSLSPNMLHHIAGYPTPKISLQIPIKLKSVLVDDWEYVTKDKKICRLPADVTVEMVLNKYEHEVSQELESPGSQSQLSEYCAGLKLYFDKCLGNMLLYRLERLQYDELLKKSSKDQKPLVPIRIYGAIHLLRLISVLPELISSTTMDLQSCQLLIKQTEDFLVWLLMHVDEYFNDKDPNRSDDALYVNTSSQYEGVALGM

What all share (test): cryo-EM structure
One data set addresses Sin3 (S. cerevisiae, UniProt P22579 1-1536).
The data set “cryo-EM structure” concerns the molecule itself.
In the data set “Rco1” the target is B2.
The target of the data set “Ume1” is B1.

Chain of Sin3 (P22579 whole entry): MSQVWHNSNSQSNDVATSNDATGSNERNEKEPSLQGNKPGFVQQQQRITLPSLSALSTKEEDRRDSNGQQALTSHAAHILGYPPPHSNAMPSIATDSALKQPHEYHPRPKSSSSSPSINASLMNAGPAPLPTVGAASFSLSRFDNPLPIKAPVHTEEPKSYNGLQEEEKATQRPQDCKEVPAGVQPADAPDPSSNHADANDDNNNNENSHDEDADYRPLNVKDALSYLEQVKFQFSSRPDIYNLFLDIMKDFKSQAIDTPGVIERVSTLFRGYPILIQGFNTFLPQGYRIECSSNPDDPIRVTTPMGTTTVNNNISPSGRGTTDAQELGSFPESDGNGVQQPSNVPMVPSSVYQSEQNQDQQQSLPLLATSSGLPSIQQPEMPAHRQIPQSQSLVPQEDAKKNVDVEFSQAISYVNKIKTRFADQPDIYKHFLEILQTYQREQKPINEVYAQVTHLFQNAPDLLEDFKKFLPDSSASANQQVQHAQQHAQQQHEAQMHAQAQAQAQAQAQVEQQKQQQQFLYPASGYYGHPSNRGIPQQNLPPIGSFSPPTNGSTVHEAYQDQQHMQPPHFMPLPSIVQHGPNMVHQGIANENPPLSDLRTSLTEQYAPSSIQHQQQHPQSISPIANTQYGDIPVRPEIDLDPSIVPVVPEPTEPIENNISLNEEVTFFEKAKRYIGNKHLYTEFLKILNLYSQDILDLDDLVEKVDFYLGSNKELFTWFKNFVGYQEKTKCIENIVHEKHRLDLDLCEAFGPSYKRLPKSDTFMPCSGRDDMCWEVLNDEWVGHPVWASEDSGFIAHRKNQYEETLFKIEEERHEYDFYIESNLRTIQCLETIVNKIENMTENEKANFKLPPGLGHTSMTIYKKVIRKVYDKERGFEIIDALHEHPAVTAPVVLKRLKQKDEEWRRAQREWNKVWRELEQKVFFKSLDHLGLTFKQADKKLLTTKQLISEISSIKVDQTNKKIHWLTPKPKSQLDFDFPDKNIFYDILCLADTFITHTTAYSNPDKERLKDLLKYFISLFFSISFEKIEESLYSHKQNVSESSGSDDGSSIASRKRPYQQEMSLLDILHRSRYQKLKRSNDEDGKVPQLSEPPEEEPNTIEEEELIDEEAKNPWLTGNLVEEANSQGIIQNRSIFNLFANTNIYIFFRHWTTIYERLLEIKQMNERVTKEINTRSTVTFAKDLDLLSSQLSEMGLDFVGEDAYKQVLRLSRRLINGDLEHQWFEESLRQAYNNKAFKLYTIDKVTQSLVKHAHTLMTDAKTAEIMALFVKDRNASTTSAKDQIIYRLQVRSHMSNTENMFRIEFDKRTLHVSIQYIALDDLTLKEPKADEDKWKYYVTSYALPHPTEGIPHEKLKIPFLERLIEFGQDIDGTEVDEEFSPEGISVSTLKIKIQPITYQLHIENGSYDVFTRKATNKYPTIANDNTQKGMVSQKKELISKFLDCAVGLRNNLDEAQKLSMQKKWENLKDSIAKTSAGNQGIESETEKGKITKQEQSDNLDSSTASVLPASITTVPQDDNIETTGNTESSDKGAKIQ

On to B1, for which, in the data set with Sin3, the binding result is “binds”.
Regarding B2, the binding result with Sin3 and in “cryo-EM structure” was “binds” in each case.
For the molecule B3, the binding result in the data set with Sin3 and with Rco1 was “binds” each time.
B4: the binding result with Rco1 and in the data set with Ume1 was “binds” each time.
